Experimental data from US20090175872A1, “Treatment of Conditions Involving Demyelination” (BIOGEN Idec MA Inc., priority 2005, published 2009).

How the values were obtained:
[1] = system: co-cultures of dorsal root ganglion (DRG) neurons and oligodendrocytes; assay: Myelination in co-cultures of DRG neurons and oligodendrocytes; assay type: cell-based, rat
Experimental: The role of Sp35 in myelination was examined in vitro by treating co-cultures of dorsal root ganglion (DRG) neurons and oligodendrocytes with Sp35-Fc and testing for myelination by immunohistochemistry and electron microscopy. For these studies, it was necessary to first generate primary cultures of DRG neurons and of oligodendrocytes.
Female Long Evans rat E14-E17 embryonic dorsal root ganglia were cultured as described by Plant et al., J. Neurosci. 22:6083-91 (2002). Dissected DRGs were plated on poly-L-lysine-coated cover slips (100 μg/ml) for 2 weeks in the presence of fluorodeoxyuridine for days 2-6 and days 8-11 in NLA medium containing 1×B27, 100 ng/ml NGF (Invitrogen).
A2B5^+ oligodendrocytes were prepared as described in Example 1, and were harvested by trypsinization.
For coculture studies, A2B5^+ oligodendrocytes were added to DRG neuron drop cultures in the presence or absence of 10 μg/ml Sp35-Fc. The culture medium (Neurobasal medium supplemented with B27 and 100 ng/ml NGF) was changed, and fresh Sp35-Fc was added to the cells every 3 d. To identify changes in myelination, 2-week-old cultures were stained by immunohistochemical staining (“IHC”) for neurofilaments with anti-βIII-tubulin antibody to identify axons, or anti-MBP antibody to identify oligodendrocytes., and 4-week-old cultures were subjected to SDS-PAGE followed by western blot analyses to quantify the MBP. In selected examples, cells were fixed for electron microscopy studies by adding 2.5% gluteraldehyde directly onto the cover slips. Myelinated axons in the 2-week-old cultures were quantified by counting the number of myelinated internode bundles that were derived from single MBP^+ oligodendrocytes. Samples were analyzed in duplicate. Error bars denote individual determinations. P values in all studies were determined using a one-way analysis of variance. […]
We performed experiments to address the relative contributions to the myelination process of Sp35 in DRG neurons as compared to oligodendrocytes. We infected DRG neurons, oligodendrocytes and co-cultures (prepared as described in Example 5) with the FL-Sp35 and DN-Sp35 lentiviral vectors described in Example 1 and performed immunohistochemical straining for myelinated MBP^+ cells after two weeks. A 2-fold increase in MBP levels in co-cultures where both cells express DN-Sp35 and a 2-fold decrease in MBP levels in co-cultures where both cells express FL-Sp35 was observed (FIG. 10G).

[2] = system: cuprizone-treated mice; assay: Cuprizone demyelination model, stereotactic injection into corpus callosum; assay type: in vivo; conditions: injected at 2, 2.5 and 3 weeks of cuprizone feeding
Source text: Adult wild-type C57B1/6 male mice were fed cuprizone (0.2% milled with ground mouse chow by weight) for 6 weeks to induce demyelination within the corpus callosum. Sp35-Fc was stereotactically injected into the demyelinating corpus callosum at 2, 2.5, and 3 weeks of cuprizone feeding. Control mice were stereotactically injected at the same intervals with sterilized media containing no Sp35-Fc. After 6 weeks of cuprizone feeding, the mice were returned to a normal diet for 2, 4 and 6 weeks (ground mouse chow only) to allow remyelination.
The cuprizone-treated mice were anesthetized with ketamine (80 mg/kg body weight) and xylazine (10 mg/kg body weight) and positioned in an immobilization apparatus designed for stereotactic surgery (David Kopf Instruments). The scalp was opened and the sterile compounds injected (1 μM in […] of HBSS) unilaterally into the acutely demyelinated corpus callosum of the wild-type recipient mice with a […] Hamilton syringe using stereotactic coordinates of 0.7 mm posterior and 0.3 mm lateral to bregrna at a depth of 1.7 mm (Messier et al., Pharmacol. Biochem. Behav. 63(2): 313-18 (1999)). Additionally, control recipient mice were stereotactically injected with HBSS containing no compounds. The opening in the skull was filled with Gelfoam, and the area was swabbed with penicillin and streptomycin (Gibco) and the wound was sutured. […]

B1: Sp35-Fc: extra-cellular portion of human Sp35 (residues 1-532) fused to the hinge and Fc region of human IgG1 (protein)
chain: TGCPPRCECSAQDRAVLCHRKRFVAVPEGIPTETRLLDLGKNRIKTLNQDEFASFPHLEELELNENIVSAVEPGAFNNLFNLRTLGLRSNRLKLIPLGVFTGLSNLTKLDISENKIVILLDYMFQDLYNLKSLEVGDNDLVYISHRAFSGLNSLEQLTLEKCNLTSIPTEALSHLHGLIVLRLRHLNINAIRDYSFKRLYRLKVLEISHWPYLDTMTPNCLYGLNLTSLSITHCNLTAVPYLAVRHLVYLRFLNLSYNPISTIEGSMLHELLRLQEIQLVGGQLAVVEPYAFRGLNYLRVLNVSGNQLTTLEESVFHSVGNLETLILDSNPLACDCRLLWVFRRRWRLNFNRQQPTCATPEFVQGKEFKDFPDVLLPNYFTCRRARIRDRKAQQVFVDEGHTVQFVCRADGDPPPAILWLSPRKHLVSAKSNGRLTVFPDGTLEVRYAQVQDNGTYLCIAANAGGNDSMPAHLHVRSYSPDWPHQPNKTFAFISNQPGE
modifications: left off: a dimerising Fc or GST
notes: extra-cellular portion of human Sp35 (residues 1-532) fused to the hinge and Fc region of human IgG1
internodes and nodes of Ranvier by electron microscopy ([1]; 4-week co-cultures, FIG. 10C): Multiple wellformed internodes were observed
expression of MBP (western blot) ([1]; 4-week-old treated co-cultures, anti-MBP antibody): increased
effect on myelination when both cell types overexpress DN-Sp35 ([1]; exogenously added): slight effects
effect on myelination when either cell type overexpresses DN-Sp35 alone ([1]; exogenously added): further enhanced myelination
effect on inhibition of myelination by overexpression of FL-Sp35 ([1]; exogenously added, FL-Sp35 in either or both cell types): reversed the inhibition of myelination
axonal myelination (MBP+ myelinated axons) ([1]; treatment for 2 weeks, dose-dependent, FIG. 10A): robust axonal myelination
axon myelination by IHC using anti-MBP protein antibody or luxol fast blue [2]: increased
mature oligodendrocyte survival (CC1 antibody staining) ([2]; FIG. 12): increased mature oligodendrocyte survival
